Data from patent US20240376180A1 (DEUTSCHES ZENTRUM FUR NEURODEGENERATIVE ERKRANKUNGEN E V …, published 2024).

B1: HL CV07-222 (antibody, V domains shown)
VH: QVQLVQSGAEVKKPGASVKVSCKASGYTFTDYYVHWVRQAPGQGLEWMGWINPISGGTNYAQKFQGRVTMTRDTSISTAYMELSRLRSDDTAVYYCARGPYYYDSSGSLGAFDIWGQGTMVTVSS
VL: QSALTQPASVSGSPGQSITISCTGTSSDVGSYNLVSWYQQHPGKAPKLMIYEGSKRPSGVSNRFSGSKSGNTASLTISGLQAEDEAHYYCCSYAGGSTSYVFGTGTKVTVLG
B2: HL CV07-250 (antibody, V domains shown)
VH: QVQLVQSEAEVKEPGASVEVSCKASGYNFTNFAISWVRQAPGQGLEWMGWISGYNGDTNSAQKFLGRVTMTTDTSTTTAYMELRSLRSDDTAVYYCAGSDNYGFPYNGMDVWGQGTTVTVSS
VL: QSALTQPPSASGSPGQSVTISCTGTSSDLGAYHFVTWYQHYPGKAPKVMIYGVRKRPSGVPDRFSGSKSGNTASLTVSGLQDEDEADYYCSSYAGNNDFVFGGGTKLTVLS
B3: HL CV07-255 (antibody, V domains shown)
VH: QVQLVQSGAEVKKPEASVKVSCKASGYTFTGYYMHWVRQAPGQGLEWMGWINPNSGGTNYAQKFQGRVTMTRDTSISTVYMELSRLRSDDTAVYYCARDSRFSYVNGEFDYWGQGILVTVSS
VL: QSALTQPASVSGSPGQSITISCTRTSSDVESYNLVSWYQQHPGKAPKLMIYEVSKRPSGISNRFSGSKSGNTASLTISGLQAEDEADYYCCSYAGHSTWVFGGGTELTVLG
B4: HL CV07-262 (antibody, V domains shown)
VH: QVQLVQSGAEVKKPGASVKVSCKASGYTFTGYYMHWVRQAPGQGLEWMGWINPNSGGTNYAQTFQGRVTMTRDTSITTTYMELSRLRSDDTAVYYCARVGWYDFGTPGDYYYYYGMDVWGQGTTVTVSS
VL: QSALTQPASVSGSPGQSITISCTGTSSDVGSYNLVSWYQQHPGKAPKLMIYEGSKRPSGVSNRFSGSKSGNTASLTISGLQAEDEADYFCCSYAGTSTFVFGTGTKVTVLG
B5: HL CV07-270 (antibody, V domains shown)
VH: QVQLVESGGGLVKPGGSLRLSCAASGFTFSDYYMTWIRQAPGKGLEWVSYISSSGSTIYYADSVKGRFTISRDNAKNSLYLQMNSLRAEDTAVYYCARARGSSGWYRIGTRWGNWFDPWGQGTLVTVSS
VL: QSALTQPASVSGSPGQSITISCTGTSSDVGGYNYVSWYQQHPGKAPKLMIYEVSNRPSGVSNRFSGSKSGNTASLTISGLQAEDEADYYCSSYTSSSNVVFGGGTMLTVLG
B6: HL CV07-283 (antibody, V domains shown)
VH: QVQLVQSGAEVKKPGASAKVSCKASGYTFTGYYIHWVRQAPGQGLEWMGLINPISGGTNYAQKFQDRVTMTRDTSISTAYMELSRLRSDDTAVYYCVRGPFYYDSSGPLGGMDVWGQGTTVTVSS
VL: QSALTQPASVSGSPGQSITISCTGTSGDVGGYNYVSWYQQHPGKAPKLMIYEVSNRPSGVSNRFSGSKSGNTASLTISGLQAEDEADYYCSSYTSSSTYVFGTGTKVTVLG
B7: HK CV07-287 (antibody, V domains shown)
VH: QVQLVQSGPEVKKPGTSVKVSCKASGFTFTSSAMQWVRQARGQRLEWIGWIVVGSGNTNYAQKFQERVTITRDMSTSTAYMELSSLRSEDTAVYYCAAPYCSSTNCYDAFDIWGQGTMVTVSS
VL: not shown
B8: HL CV07-315 (antibody, V domains shown)
VH: EVQLVESGGGLVQPGRSLRLSCAASGFTFDDYAMHWVRQAPGKGLEWVSGISWNSGSIGYADSVKGRFTISRDNAKNSLYLQMNSLRAEDTALYYCAKDFLWDLHPPRYYGMDVWGQGTTVTVSS
VL: QSVLTRPPSVSAAPGQKVTISCSGSSSNIGNNYVSWYQQLPGTAPKLLIYENNKRPSGIPDRFSGSKSGTSATLGITGLQTGDEADYYCGTWDSSLNGVFGGGTKLTVLG
B9: HK CV38-113 (antibody, V domains shown)
VH: EVQLVESGGGLVQPGGSLRLSCAASGFTVSSNYMSWVRQAPGKGLEWVSVIYSGGSTYYADSVKGRFTISRHNSKNTLYLQMNSLRAEDTAVYFCARGGRLADAAGDYWGQGTLVTVSS
VL: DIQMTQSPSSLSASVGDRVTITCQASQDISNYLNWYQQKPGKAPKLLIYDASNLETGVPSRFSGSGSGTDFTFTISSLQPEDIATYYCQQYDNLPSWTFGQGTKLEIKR
B10: HK CV38-139 (antibody, V domains shown)
VH: EVQLVESGGGLVQPGGSLRLSCAASGFTVSSNYMSWVRQAPGKGLEWVSVFYSGGSTFYADSVKGRFTISRDNSKNTLYLQMNSLRAEDTAVYYCARGHYDLFDYWGQGTLVTVSS
VL: DIQLTQSPSFLSASVGDRVTITCRASQGISSYLAWYQQKPGKAPKLLIYAASTLQSGVPSRFSGSGSGTEFTLTISSLQPEDFATYYCQQLNSYPPGTFGPGTKVDIKR
B11: HK CV38-221 (antibody, V domains shown)
VH: EVQLVESGGGLVQPGGSLRLSCAASGITVSSNYMIWVRQAPGKGLEWVSVIYSGGSTYYADSVKGRFTISRDNSKNTLYLQMNSLRAEDTAVYYCARGFGDYYFDYWGQGTLVTVSS
VL: EIVLTQSPGTLSLSPGERATLSCRASQSVSSSYFAWYQQKPGQAPRLLIYGASSRATGIPDRFSGSGSGTDFTLTISRLEPEDFAVYYCQQLYTFGQGTKLEIKR
B12: HK CVX1-126 (antibody, V domains shown)
VH: EVQLVESGGGLVQPGGSLRLSCAASGLTVSSNYMSWVRQAPGKGLEWVSVIYSGGSTYYADSVKGRFTISRHNSKNTLYLQMNSVRAEDTAVYYCARDLSEGGMDVWGQGTTVTVSS
VL: DIQMTQSPSSVSASVGDRVTITCRASQGISSWLAWYQQKPGKAPKLLIYAASTLQSGVPSRFSGSGSGTDFTLTISSLQPEDFATYYCQQANGFPPLFGGGTKVEIKR
B13: HK CV07-209 (antibody, V domains shown)
VH: QVQLVESGGGLVKPGGSLRLSCAASGFTFSDYYMSWIRQAPGKGLEWVSYISSSVSTIYYADSVKGRFTISRDNAKNSLYLQMNSLRAEDTAVYYCARDGVIPPRFDYWGQGTLVTVSS
VL: not shown
B14: HK CVX2-106 (antibody, V domains shown)
VH: QVQLVQSGAEVKKPGSSVKVSCKASGGTFSSYAISWVRQAPGQGLEWMGGIIPIFGTANYAQKFQGRVTITADESTSTAYMELSSLRSEDTAVYYCATRKETTVTTSLVYGMDVWGQGTTVTVSS
VL: not shown

Molecular target: SARS-CoV-2 Spike RBD-Fc (SARS-CoV-2)
Test: ELISA, RBD-Fc captured via anti-rabbit IgG, concentration-dependent binding

Row | Binder | EC50 [ng/mL]
1 | B1 | 5.5
2 | B2 | 8.7
3 | B3 | 4.8
4 | B4 | 12.1
5 | B5 | 14.2
6 | B6 | 4
7 | B7 | 5.9
8 | B8 | 7.2
9 | B9 | 5.2
10 | B10 | 8.9
11 | B11 | 6.4
12 | B12 | 5.5
13 | B13 | 4.1
14 | B14 | 5.6
